# Test results as given in the supplement of paper PMC6757056.
# ± gives the standard deviation of the averaged measurements.
# B1: library; a variant is named by its letters at N, in order (parent)
# chain: GCUGUCACCGAGAAACUGUGAAGUAUAUCUUAAACCUGGGCACUUAAAAGAUAUAUGGAGUUAGUAGUGCAACCUGCUCGGUCUGAUGAGUCCNNNNNNGGACGAAACAGC
# Experiments:
# cyclic di-GMP [1] = variants of: B1; experiment: normalized RNA/DNA level without ligand (relative to sTRSVctl = 100) (log10 (% of sTRSVctl)); HEK293T; ligand: cyclic di-GMP (c-di-GMP-II aptamer); higher = less ribozyme self-cleavage, higher mRNA level; details: reporter: mCherry (pCS4076), ligand present: no
# Procedure, shortened: (§1)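 HEK293T cells received ligand, where used, 1 h before being transfected with 4 µg per 6-well well of library plasmids encoding reporter-linked ribozyme switches. After 72 h, RNA was extracted with EDTA and sequenced. RNA level was derived from RNA reads per DNA read, normalized to a spiked-in non-cleaving sequence or the top sequences, then scaled and log-transformed. Values were ×100 then log10, the top set was 25 sequences, and the minimum was 100 DNA reads.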
# cyclic di-GMP [2] = variants of: B1; experiment: normalized RNA/DNA level with ligand (relative to sTRSVctl = 100) (log10 (% of sTRSVctl)); HEK293T; ligand: cyclic di-GMP (c-di-GMP-II aptamer); ligand concentration (+) RNA-Seq: 1 mM; higher = less ribozyme self-cleavage, higher mRNA level; details: reporter: mCherry (pCS4076), ligand present: yes
# Procedure, shortened: as §1
Variant,normalized RNA/DNA level without ligand (log10) (cyclic di-GMP [1]),normalized RNA/DNA level with ligand (log10) (cyclic di-GMP [2])
GCUGUCACCGAGAAACUGUGAAGUAUAUCUUAAACCUGGGCACUUAAAAGAUAUAUGGAGUUAGUAGUGCAACCUGCUCGGUCUGAUGAGUCCGCUCGGGGACGAAACAGC [GCUCGG],1.78 ± 0.018,1.88 ± 0.052
GCUGUCACCGAGAAACUGUGAAGUAUAUCUUAAACCUGGGCACUUAAAAGAUAUAUGGAGUUAGUAGUGCAACCUGCUCGGUCUGAUGAGUCCACGUCAGGACGAAACAGC [ACGUCA],1.61 ± 0.033,1.76 ± 0.13
GCUGUCACCGAGAAACUGUGAAGUAUAUCUUAAACCUGGGCACUUAAAAGAUAUAUGGAGUUAGUAGUGCAACCUGCUCGGUCUGAUGAGUCCAUAUCGGGACGAAACAGC [AUAUCG],1.56 ± 0.022,1.75 ± 0.068
GCUGUCACCGAGAAACUGUGAAGUAUAUCUUAAACCUGGGCACUUAAAAGAUAUAUGGAGUUAGUAGUGCAACCUGCUCGGUCUGAUGAGUCCUGCCCCGGACGAAACAGC [UGCCCC],1.857 ± 0.013,1.93 ± 0.092
GCUGUCACCGAGAAACUGUGAAGUAUAUCUUAAACCUGGGCACUUAAAAGAUAUAUGGAGUUAGUAGUGCAACCUGCUCGGUCUGAUGAGUCCGGGGUAGGACGAAACAGC [GGGGUA],1.52 ± 0.018,1.62 ± 0.13
GCUGUCACCGAGAAACUGUGAAGUAUAUCUUAAACCUGGGCACUUAAAAGAUAUAUGGAGUUAGUAGUGCAACCUGCUCGGUCUGAUGAGUCCCCGCAAGGACGAAACAGC [CCGCAA],1.447 ± 0.014,1.68 ± 0.14
GCUGUCACCGAGAAACUGUGAAGUAUAUCUUAAACCUGGGCACUUAAAAGAUAUAUGGAGUUAGUAGUGCAACCUGCUCGGUCUGAUGAGUCCACUGAGGGACGAAACAGC [ACUGAG],1.54 ± 0.11,1.71 ± 0.031
GCUGUCACCGAGAAACUGUGAAGUAUAUCUUAAACCUGGGCACUUAAAAGAUAUAUGGAGUUAGUAGUGCAACCUGCUCGGUCUGAUGAGUCCAACGACGGACGAAACAGC [AACGAC],1.6 ± 0.04,1.79 ± 0.12
GCUGUCACCGAGAAACUGUGAAGUAUAUCUUAAACCUGGGCACUUAAAAGAUAUAUGGAGUUAGUAGUGCAACCUGCUCGGUCUGAUGAGUCCGCGCCCGGACGAAACAGC [GCGCCC],1.79 ± 0.025,1.89 ± 0.038
GCUGUCACCGAGAAACUGUGAAGUAUAUCUUAAACCUGGGCACUUAAAAGAUAUAUGGAGUUAGUAGUGCAACCUGCUCGGUCUGAUGAGUCCCCGACUGGACGAAACAGC [CCGACU],1.59 ± 0.082,1.74 ± 0.077
GCUGUCACCGAGAAACUGUGAAGUAUAUCUUAAACCUGGGCACUUAAAAGAUAUAUGGAGUUAGUAGUGCAACCUGCUCGGUCUGAUGAGUCCGAUGUGGGACGAAACAGC [GAUGUG],1.71 ± 0.032,1.8 ± 0.1
GCUGUCACCGAGAAACUGUGAAGUAUAUCUUAAACCUGGGCACUUAAAAGAUAUAUGGAGUUAGUAGUGCAACCUGCUCGGUCUGAUGAGUCCAACGUAGGACGAAACAGC [AACGUA],1.51 ± 0.024,1.73 ± 0.1
GCUGUCACCGAGAAACUGUGAAGUAUAUCUUAAACCUGGGCACUUAAAAGAUAUAUGGAGUUAGUAGUGCAACCUGCUCGGUCUGAUGAGUCCUUUCUGGGACGAAACAGC [UUUCUG],1.795 ± 0.012,1.92 ± 0.091
GCUGUCACCGAGAAACUGUGAAGUAUAUCUUAAACCUGGGCACUUAAAAGAUAUAUGGAGUUAGUAGUGCAACCUGCUCGGUCUGAUGAGUCCCCGCUCGGACGAAACAGC [CCGCUC],1.66 ± 0.029,1.85 ± 0.094
GCUGUCACCGAGAAACUGUGAAGUAUAUCUUAAACCUGGGCACUUAAAAGAUAUAUGGAGUUAGUAGUGCAACCUGCUCGGUCUGAUGAGUCCUUUAGCGGACGAAACAGC [UUUAGC],1.76 ± 0.054,1.86 ± 0.14
GCUGUCACCGAGAAACUGUGAAGUAUAUCUUAAACCUGGGCACUUAAAAGAUAUAUGGAGUUAGUAGUGCAACCUGCUCGGUCUGAUGAGUCCAACUAGGGACGAAACAGC [AACUAG],1.616 ± 0.0088,1.78 ± 0.13
GCUGUCACCGAGAAACUGUGAAGUAUAUCUUAAACCUGGGCACUUAAAAGAUAUAUGGAGUUAGUAGUGCAACCUGCUCGGUCUGAUGAGUCCAAUAUAGGACGAAACAGC [AAUAUA],1.53 ± 0.054,1.72 ± 0.13
GCUGUCACCGAGAAACUGUGAAGUAUAUCUUAAACCUGGGCACUUAAAAGAUAUAUGGAGUUAGUAGUGCAACCUGCUCGGUCUGAUGAGUCCUACGGUGGACGAAACAGC [UACGGU],1.6 ± 0.032,1.78 ± 0.098
GCUGUCACCGAGAAACUGUGAAGUAUAUCUUAAACCUGGGCACUUAAAAGAUAUAUGGAGUUAGUAGUGCAACCUGCUCGGUCUGAUGAGUCCACCGAGGGACGAAACAGC [ACCGAG],1.57 ± 0.031,1.74 ± 0.11
GCUGUCACCGAGAAACUGUGAAGUAUAUCUUAAACCUGGGCACUUAAAAGAUAUAUGGAGUUAGUAGUGCAACCUGCUCGGUCUGAUGAGUCCUCUCCUGGACGAAACAGC [UCUCCU],1.77 ± 0.003,1.91 ± 0.14
GCUGUCACCGAGAAACUGUGAAGUAUAUCUUAAACCUGGGCACUUAAAAGAUAUAUGGAGUUAGUAGUGCAACCUGCUCGGUCUGAUGAGUCCCCGUAGGGACGAAACAGC [CCGUAG],1.32 ± 0.11,1.55 ± 0.14
GCUGUCACCGAGAAACUGUGAAGUAUAUCUUAAACCUGGGCACUUAAAAGAUAUAUGGAGUUAGUAGUGCAACCUGCUCGGUCUGAUGAGUCCCGGCCUGGACGAAACAGC [CGGCCU],1.74 ± 0.018,1.88 ± 0.11
GCUGUCACCGAGAAACUGUGAAGUAUAUCUUAAACCUGGGCACUUAAAAGAUAUAUGGAGUUAGUAGUGCAACCUGCUCGGUCUGAUGAGUCCAUGAGGGGACGAAACAGC [AUGAGG],1.55 ± 0.044,1.73 ± 0.085
GCUGUCACCGAGAAACUGUGAAGUAUAUCUUAAACCUGGGCACUUAAAAGAUAUAUGGAGUUAGUAGUGCAACCUGCUCGGUCUGAUGAGUCCGAUAAGGGACGAAACAGC [GAUAAG],1.54 ± 0.036,1.72 ± 0.1
GCUGUCACCGAGAAACUGUGAAGUAUAUCUUAAACCUGGGCACUUAAAAGAUAUAUGGAGUUAGUAGUGCAACCUGCUCGGUCUGAUGAGUCCUCAGGAGGACGAAACAGC [UCAGGA],1.45 ± 0.071,1.67 ± 0.099
GCUGUCACCGAGAAACUGUGAAGUAUAUCUUAAACCUGGGCACUUAAAAGAUAUAUGGAGUUAGUAGUGCAACCUGCUCGGUCUGAUGAGUCCAUUUAUGGACGAAACAGC [AUUUAU],1.74 ± 0.037,1.84 ± 0.073
